{
  "source": "patent US20210315969A1",
  "about": "“GLYCOPROTEINS HAVING LIPID MOBILIZING PROPERTIES AND THERAPEUTIC USES THEREOF” (Aston University, priority 2008, published 2021)",
  "molecules": {"B1": {"name": "Zinc-α2-glycoprotein (protein, listed as Homo sapiens)", "chain": "QENQDGRYSLTYIYTGLSKHVEDVPAFQALGSLNDLQFFRYNSKDRKSQPMGLWRQVEGMEDWKEDSQLQKAREDMETLKDIVEYYNDSNGSHVLQGRFGCEIENNRSSGAFWKYYYDGKDYIEFNKEIPAWVPFDPAAQITKQKWEAEPVYVQRAKAYLEEECPATLRKYLKYSKNILDRQDPPSVVVTSHQAPGEKKKLKCLAYDFYPGKIDVHWTRAGQVQEPELRGDVLHNGNGTYQSWVVVAVPPQDTAPYSCHVQHSSLAQPLVVPWEAS", "notes": "recombinant human Zinc-α2-glycoprotein, lipid mobilizing factor, expressed in HEK293F cells"}},
  "key": {"[1]": {"tested_on": "adipocytes and gastrocnemius muscle", "assay": "Glucose uptake into adipocytes and gastrocnemius muscle of ob/ob mice treated with ZAG", "type": "in vivo", "conditions": "presence of low (1 nM) insulin", "description": "Glucose (intake into Atlipocpyes Isolated adipocytes (5×10^4) were washed twice in 1 ml Krebs-Ringer bicarbonate buffer, pH 7.2 (KRBS) and further incubated for 10 min at room temperature in 0.5 ml KRBS containing 18.5MBq […]-^14CI deoxy-D-glucose and non-radioactive 2-deoxy-D-glucose to a final concentration of 0.1 mM. Uptake was terminated by the addition of 1 ml ice-cold glucose-free KRBS, and the cells were washed three times with 1 ml KRBS, lysed by addition of 0.5 ml 1 M NaOH and left for at least 1 h at room temperature before the radioactivity was determined by liquid scintillation counting.\nGlucose Uptake into Gostrocneinius Muscle—Gastrocnemius muscles were incubated in Krebs-Henseleit bicarbonate butler for 45 min at 37° C. and then incubated for a further 10 min in 5 ml Krebs-Henseleit butler containing 185M Bq 2-[1-^14C]deoxy-D-glucose and non-radioactive 2-deoxy-D-glucose to a final concentration of 0.1 mM. The muscles were then removed and washed in 0.9% NaCl for 5 min followed by dissolution in 0.5 ml 1M NaOH and the radioactivity was determined by liquid scintillation counting."}, "[2]": {"tested_on": "proteasome 'chymotrypsin-like' activity, caspase-3 and caspase-8", "assay": "Proteasome 'chymotrypsin-like' and caspase activity in gastrocnemius muscle", "type": "in vivo", "conditions": "ob/ob mice treated 5 days", "description": "Gastrocnemius muscle was homogenised in 20 mM Tris, pH7.5, 2 mM ATP, 5 mM MgCl2 and 50 mM DTT at 4° C., sonicated and centrifuged at 18,000 g for 10 min at 4° C. to pellet insoluble material, and the resulting supernatant was used to measure ‘chymotrypsin-like’ enzyme activity in the presence or absence of the proteasome inhibitor lactacystin (10 μM). Only lactacystin suppressible activity was considered as true proteasome activity. The activity of caspase-3 was determined by the release of AMC from AcAsp.Gly.Val.Asp.AMC (SEQ ID NO: 3), and the activity of caspase-8 was determined by the release of 7-amino-4-trifluromethylcoumarin (AFC) from the specific substrate Z-Ile Glu Phe Thr Asp-AFC (SEQ ID NO: 4), using the supernatant from above (50 ug protein), and either the caspase-3 or −8 substrate (10 μM) for ih 37° C. in the presence or absence of the caspase-3 (AcAsp Glu Val Asp-CHO) (SEQ ID NO: 5) or caspase-8 (Ile Glu Phe Thr Asp-CHO) (SEQ ID NO: 6) inhibitors (100 μM). The increase in fluorescence due to […], while the increase in fluorescence due to AFC was measured with an excitation wavelength of 400 nm and an emission wavelength of 505 nm. The difference in values in the absence and presence of the caspase inhibitors was a measure of activity."}, "[3]": {"tested_on": "rat epididymal adipocytes", "assay": "Lipolytic activity in rat adipocytes", "type": "cell-based", "conditions": "concentrations between 233 and 700 nM", "description": "Lipolytic Activity in Rat Adipocytes—White adipocytes were prepared from finely minced epididymal adipose tissue of male Wistar rats (400 g) using collagenase digestion, as described (Beck S A, et al. Production of lipolytic and proteolytic factors by a murine tumor-producing cachexia in the host. Cancer Res 47:5919-5923, 1987), Lipolytic activity was determined by incubating 10^5-2×10^5 adipocytes for 2 h in 1 ml Krebs-Ringer bicarbonate buffer, pH 7.2, and the extent of lipolysis was determined by measuring the glycerol released (Wieland O. Glycerol U V method. Methods of Enzymatic Analysis, edited by Bergmeyer H U, Academic Press, London, pp 1404-1409, 1974). Spontaneous glycerol release was measured by incubating adipocytes alone. Lipolytic activity was expressed as μmol glycerol released/10^5 adipocytes/2 h."}},
  "data": [
    {"molecule": "B1", "values": [
      {"measurement": "glucose uptake into epididymal and visceral adipocytes", "setting": "[1]", "result": "also increased glucose uptake"},
      {"measurement": "caspases-3 and -8", "setting": "[2]", "result": "attenuated"},
      {"measurement": "glycerol release", "setting": "[3]", "result": "dose-related increase"}
    ]}
  ]
}
